These results are taken from IntAct's records for PubMed 17030804.

B1: Rab11 family-interacting protein 3 (Homo sapiens), O75154-1 (parent)
chain: MASAPPASPPGSEPPGPDPEPGGPDGPGAAQLAPGPAELRLGAPVGGPDPQSPGLDEPAPGAAADGGARWSAGPAPGLEGGPRDPGPSAPPPRSGPRGQLASPDAPGPGPRSEAPLPELDPLFSWTEEPEECGPASCPESAPFRLQGSSSSHRARGEVDVFSPFPAPTAGELALEQGPGSPPQPSDLSQTHPLPSEPVGSQEDGPRLRAVFDALDGDGDGFVRIEDFIQFATVYGAEQVKDLTKYLDPSGLGVISFEDFYQGITAIRNGDPDGQCYGGVASAQDEEPLACPDEFDDFVTYEANEVTDSAYMGSESTYSECETFTDEDTSTLVHPELQPEGDADSAGGSAVPSECLDAMEEPDHGALLLLPGRPHPHGQSVITVIGGEEHFEDYGEGSEAELSPETLCNGQLGCSDPAFLTPSPTKRLSSKKVARYLHQSGALTMEALEDPSPELMEGPEEDIADKVVFLERRVLELEKDTAATGEQHSRLRQENLQLVHRANALEEQLKEQELRACEMVLEETRRQKELLCKMEREKSIEIENLQTRLQQLDEENSELRSCTPCLKANIERLEEEKQKLLDEIESLTLRLSEEQENKRRMGDRLSHERHQFQRDKEATQELIEDLRKQLEHLQLLKLEAEQRRGRSSSMGLQEYHSRARESELEQEVRRLKQDNRNLKEQNEELNGQIITLSIQGAKSLFSTAFSESLAAEISSVSRDELMEAIQKQEEINFRLQDYIDRIIVAIMETNPSILEVK

This assay covers variants of B1. Particulars: with rb11a_human RAB11A.
Regarding D739A, the “effect of a mutation on the interaction” value is “disrupting interaction strength”.
Turning to E747A, the “effect of a mutation on the interaction” value is recorded as “decreasing interaction strength”.
Consider Y737S, for which the “effect of a mutation on the interaction” value is on record as “disrupting interaction strength”.
In the case of M746S, the “effect of a mutation on the interaction” value is recorded as “disrupting interaction strength”.
